Results taken from the supplement of paper PMC9170038.

Experiments:
MS2 coat protein [1] = test: apparent KD of MS2 coat protein, switch ON state; designed switch direction (-1 OFF switch, 1 ON switch): -1; higher = weaker reporter binding; settings: FMN input: 0 or 200 uM; Eterna round: R93 (includes R88 designs)
Method in brief: (§1)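 The buffer was 100 mM Tris-HCl pH 7.5 with 80 mM KCl and 4 mM MgCl2, used without or with constant ligand. In it, RNA switches transcribed on-chip from Illumina sequencing clusters were titrated with SNAP-549-labelled MS2 coat protein in twofold steps from 0.7 or 1.5 nM to 3 µM. Apparent KD for each design is the median of its normalised cluster binding-curve fits.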

MS2 coat protein [2] = test: apparent KD of MS2 coat protein, switch OFF state (with FMN for OFF switches, without FMN for ON switches); designed switch direction (-1 OFF switch, 1 ON switch): -1; higher = weaker reporter binding; settings: FMN input: 0 or 200 uM; Eterna round: R93 (includes R88 designs)
Method in brief: as §1

MS2 coat protein [3] = test: apparent KD of MS2 coat protein; designed switch direction (-1 OFF switch, 1 ON switch): 1; higher = weaker reporter binding
Method in brief: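 An oligonucleotide input, 200 uM small-molecule ligand, or no input was present during titration of SNAP-549-labelled MS2 coat protein, which was doubled from 0.7 or 1.5 nM to 3 µM. Designed RNA switches had been transcribed on Illumina chips by stalled E. coli RNA polymerase. Apparent KD per design is the median over clusters of curves fitted to normalised cluster fluorescence.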

[4] = input ligand: microRNA oligo, concentration not stated

Sequence | apparent KD of MS2 coat protein (MS2 coat protein [1]) [nM] | apparent KD of MS2 coat protein (MS2 coat protein [2]) [nM] | further results
AAAAAAAGAGGAUAUACGAACAUGUCAAAAGACGUGAAGGGACAUGAGGAUCACCCAUGUAGAAGGCUUAAAAA [JL Part Open 28] | 38.7 | 26.3 | –
AAAAAACAUGAGGAUCACCCAUGUAAGGAUAUGCAAAAUAAAAGAAAUAAAAAGAAAAGCAGAAGGUACAUUAA [JL wbt mod 9] | 23.6 | 37.9 | –
AAAAAACAUGAGGAUCACCCAUGUGAGGAUAUACAAAGAAAGACAGGCAAGUAAAGAGGUAGAAGGCGCAAAAA [Default title] | 15.4 | 18.2 | –
AAAAAACAUGAGGAUCACCCAUGUGAGGAUAUCCUAAAGGGAAUAAAAUAACUCAAAAGGAGAAGGCGCAAAAA [Ex 1 May 31] | 60.2 | 46.3 | –
AAAAAACAUGAGGAUCACCCAUGUGAGGAUAUCGCUAGUCAGUCAUCAGAGUGAGUGAUGAGAAGGCACAUAAA [Brourd 613 Mod 6 - Jieux - Exclusion 1] | 26.3 | 31.9 | –
AAAAAACAUGAGGAUCACCCAUGUGAGGAUAUCGCUAGUCAGUCCCUAGAGUGAGUGAUGAGAAGGCACAUAAA [Brourd 613 Mod 7 - Jieux - Exclusion 1] | 40.9 | 49.6 | –
AAAAAACAUGAGGAUCACCCAUGUGAGGAUAUCGGAAAAGGAAAAAAAAAAAAGAAGACGAGAAGGCACAAAGA | 26.6 | 28.6 | –
AAAAAACAUGAGGAUCACCCAUGUGAGGAUAUCGGAAAAGGAAAAAUAAAAAAGAAGACGAGAAGGCACACCAA [Mat - Exclusion 1 - Eli mod - D74] | 20.9 | 24.6 | –
AAAAAACAUGAGGAUCACCCAUGUGAGGAUAUCGGUAGUGAGGCUAUAGUGUCAAUAGUGAGAAGGCACAUAAA [Brourd 613 Mod 12 - Jieux - Exclusion 1] | 31.1 | 29.2 | –
AAAAAACAUGAGGAUCACCCAUGUGAGGAUAUCGUAAACAAAAAAAACAAAAACAAAUCGAGAAGGCACAAAAA [Amethyst 34] | 21 | 35.1 | –
AAAAAACAUGAGGAUCACCCAUGUGAGGAUAUCUGAAAAAAAAAAAAAAAAAAGAAAAAGAGAAGGCGCAAAGA [Ex 1 #2] | 38 | 35.1 | –
AAAAAACAUGAGGAUCACCCAUGUGAGGAUAUGAACGAAAAUAAAUAAAAAUAAAAGUUCAGAAGGUACGAAAA [66%, Wbt, 3] | 25.2 | 30.7 | –
AAAAAACAUGAGGAUCACCCAUGUGAGGAUAUGACGUAAAUAAAGAAAGAAGAAAUCGUCAGAAGGCACAAAAA [55%, Disencluded 2, 6] | 42.3 | 41 | –
AAAAAACAUGAGGAUCACCCAUGUGAGGAUAUGACGUAAAUAAAGAAAGAAGAAAUCGUCAGAAGGCACACCAA [55%, Disencluded 2, 5] | 29.8 | 43.1 | –
AAAAAACAUGAGGAUCACCCAUGUGAGGAUAUGAUGCGAAUAAAGAAAGAAGAAAGCAUCAGAAGGCACACCAA [58%, Disencluded 3, 1] | 29.4 | 52 | –
AAAAAACAUGAGGAUCACCCAUGUGAGGAUAUGCAAAAAAAAAAAAAAAAAAAAAAAAGCAGAAGGCGCAAAAA [4 GC Strong] | 20.6 | 38.9 | –
AAAAAACAUGAGGAUCACCCAUGUGAGGAUAUGCAAAACCCAUAUAAAAAGGGAAAAAGCAGAAGGCACAAAAA [Starry Exclusion 1.3 (wbt round 1 mod)] | 22.8 | 55.8 | –
AAAAAACAUGAGGAUCACCCAUGUGAGGAUAUGCAAAAGAAAAGAAAAGAAAGAAGAAGCAGAAGGCACAAGAA [Djedefra] | 29.4 | 36.8 | –
AAAAAACAUGAGGAUCACCCAUGUGAGGAUAUGCGAAAAUAAAAUAAAAUAAAUAAAAGCAGAAGGCACAAAAA [Mat - Exclusion 1 - Eli mod - D59] | 41.1 | 43.9 | –
AAAAAACAUGAGGAUCACCCAUGUGAGGAUAUGUAAAAUAAAAUAAAAAUAAAGAAAAGCAGAAGGUAUAUGAA [Amethyst 65] | 20.4 | 23.2 | –

Sequence | apparent KD of MS2 coat protein (MS2 coat protein [1]) [nM] | apparent KD of MS2 coat protein (MS2 coat protein [2]) [nM] | further results
AAAAAAGGAGGAUAUACGUACAUGUCAAAAGACGUGAAGGGACAUGAGGAUCACCCAUGUAGAAGGUCUAAAAA [JL Part Open 36] | 34.5 | 17.9 | –
AAAAAAGGAGGAUAUACGUACAUGUCGAAAGACGUGAAGGGACAUGAGGAUCACCCAUGUAGAAGGCCUAAAAA [Mat - Exclusion 2 - JL mod - D86] | 34.8 | 107 | –
AAAAACCUAGGAUAUACAUGAGGAUCACCCAUGUAAAGAAACAAAAAGGGAAAAACAAGUAGAAGGAGGAAGAA [JR_Exc003_Sub1202] | 16.3 | 18.2 | –
AAAAAGAUAGGAUAUACGUACAUGUCAAAAGACGUGAAGGGACAUGAGGAUCACCCAUGUAGAAGGAUUAAAAA [JL Wide Open 40] | 31.6 | 20.1 | –
AAAAAGGCAGGAUAUACGAAACUAAGACAAAUAAGAAAGGGACAUGAGGAUCACCCAUGUAGAAGGGCCAAAAA [Exclusion 2-01... 60% 4] | 49.1 | 70.1 | –
AAAAAGGGAGGAUAUACAUGAGGAUCACCCAUGUAAAAAAAAAAAGGAGGGAGGGAAGGUAGAAGGCCCAAAAA [Excls3-IIi] | 17.7 | 24.6 | –
AAAAAGGGAGGAUAUACAUGAGGAUCACCCAUGUAAAAAAAAACAAAAAAAAAAAAAAGUAGAAGGCCCAAAAA [here you go] | 52.3 | 37.5 | –
AAAAAGGGAGGAUAUACAUGAGGAUCACCCAUGUGAAGGACGAAAAAGAGUCUAAAGGGUAGAAGGCCCAAAAA [65%, Moding Exclusion3-cac2, 11] | 52.5 | 43.4 | –
AAAAAGGUAGGAUAUACAUGAGGAUCACCCAUGUAAAUAAAUGGAGAAAAAAACAAUUGUAGAAGGGCCAAAAA [Ex3 Malc#8] | 39.9 | 43.1 | –
AAAAAGUCAGGAUAUACGAAAGUGCGAAAGCACAAAAAGAGACAUGAGGAUCACCCAUGUAGAAGGGACAAGAA [Married to this design, 61% 2] | 45 | 17.8 | –
AAAAAGUCAGGAUAUGCAGAAAAAAAAACGAAAAAAAAACUGCAGAAGGGACAUGAGGAUCACCCAUGUUAAAA [Ex 4 May 14] | 30.8 | 29.8 | –
AAAAAGUGAGGAUAUGGUAAAAAAAAAAAAAAAAAAAAAAUCCAGAAGGCACAUGAGGAUCACCCAUGUAAAAA [Jolly Cotton - Jieux - Exclusion 4] | 46.2 | 29.7 | –
AAAAAGUGAGGAUAUUCGGAUAGGAAAACGAAAACCUAUCCGAAGAAGGCACAUGAGGAUCACCCAUGUAAAAA [67% Ecls-II - Early G segment 1] | 37 | 37.6 | –
AAAAAGUUAGGAUAUACAUGAGGAUCACCCAUGUACAUAAAUGGAGAAAAAAACAGUAGUAGAAGGGACAAAAA [EX2 Malc#11] | 23.8 | 22.2 | –
AAAAAUGGAGGAUAUACAUGAGGAUCACCCAUGUGAAACAAAACAAAACACAAAAAAAGUAGAAGGCCAAAAAA [Gilly Gone Silly 4 - Jieux - Exclusion 3] | 33.1 | 38.2 | –
AGAACGUCAGGAUAUCCAACAACAAGUAAAUAGAGAAGAAGGGAGAAGGGACAUGAGGAUCACCCAUGUAAGAA [e4-2] | – | 29.9 | –
UUUCGAUAGAUAGGAUAUCACUUUACAUGAGGAUCACCCAUGUUGGCUGUGCUGAUUAUUAAAACUGAGAAGGAUCUUGAUGAC [JR_SSNG2_Sub003] (Eterna round: R96, puzzle: Same State NG 2) | – | – | apparent KD of MS2 coat protein (MS2 coat protein [3]; input ligand: FMN 200 uM): 25.2 nM; apparent KD of MS2 coat protein (MS2 coat protein [3]; [4]): 22 nM; apparent KD of MS2 coat protein (MS2 coat protein [3]; input ligand: none): 23.5 nM
UUUGAAUUGCAAGGAUAUCUUAUUUAGAUUUUAAGAGAAGGUGCUUUACAGUUACAUGAGGAUCACCCAUGUCUUUCUUUUUAU [JR_SSNG1_Sub063] (Eterna round: R96, puzzle: Same State NG 1) | – | – | apparent KD of MS2 coat protein (MS2 coat protein [3]; [4]): 19.3 nM
UUUUUUAUCGUAGGAUAUAGGUUGAAUAAUAGACUAGAAGGACGUCACAUGAGGAUCACCCAUGUUUUUUAAGUGUCGAAGUGU [JR_SSNG1_Sub040] (Eterna round: R96, puzzle: Same State NG 1) | – | – | apparent KD of MS2 coat protein (MS2 coat protein [3]; input ligand: FMN 200 uM): 31.3 nM; apparent KD of MS2 coat protein (MS2 coat protein [3]; [4]): 23 nM; apparent KD of MS2 coat protein (MS2 coat protein [3]; input ligand: none): 29.4 nM
UUUUUUUUGACGAGACAAGCUUUUUGAUCACAUGAGGAUCACCCAUGUCUCGUCUUAUUUUUUUUUUUUUUUUUUUU [BA Sensor hsa-mir-208a - 2 - 2] (puzzle: Sensor for hsa-mir-208a) | – | – | apparent KD of MS2 coat protein (MS2 coat protein [3]; Eterna round: R95, input ligand: FMN 200 uM): 17.4 nM; apparent KD of MS2 coat protein (MS2 coat protein [3]; Eterna round: R95, input ligand: microRNA oligo, concentration not stated): 9.64 nM; apparent KD of MS2 coat protein (MS2 coat protein [3]; Eterna round: R95, input ligand: none): 7.54 nM
